{
  "source": "paper PMC8038991",
  "about": "“R-catcher, a potent molecular tool to unveil the arginylome” (Cellular and Molecular Life Sciences: CMLS, 2021)",
  "system": "R-catcher",
  "assay": "R-catcher pulldown of putative arginylated ER proteins, HeLa",
  "format": "binding, human",
  "conditions": "5 µM MG132 plus 100 nM TG, RA competition, Fig. 6a",
  "procedure": "For small-scale R-catcher pull-down assays, 300 µg of purified R-catcher was conjugated with 120 µl of Strep-Tactin sepharose resin by incubating overnight at 4 °C. To test R-catcher’s ability to capture known arginylated proteins, such as R-BiP, R-PDI, R-nsP4 and R-RGS4, plasmids encoding Ub-X-(BiP, PDI and nsP4) or MX-RGS4 (X = Arg or Val) were transiently transfected into HEK293 cells. After 24 h, cells were treated with 10 µM MG132 and 100 nM thapsigargin for another 24 h. Cells were harvested and lysed in hypotonic buffer and 300 µg total protein was incubate with 25 µl R-catcher-sepharose resin in binding buffer (20 mM HEPES pH 7.9, 0.05% Tween 20, 10% glycerol, 0.2 M KCl, protease inhibitor and phosphatase inhibitor) for 3 h with gentle rotation at 4 °C. After three washes with binding buffer, bound proteins were dissociated with 2 × SDS sample buffer and boiling at 100 °C and subjected to immunoblotting using anti-myc or flag antibodies.\nPlasmids encoding the proteins were transiently transfected to HeLa cells for 24 h and stimulated with 5 µM MG132 plus 100 nM TG for another 24 h. Cell lysates were incubated with R-catcher immobilized on tactin beads for 3 h. After wash, bound proteins were eluted with 2 × SDS sample buffer followed by boiling at 100 °C for 10 min and visualized by western blot analysis. b R-catcher pulldown assays to validate ATE1-dependent arginylation of […]1, PRDX4, FBLN1 and CLUS. Plasmids encoding […]1, PRDX4, FBLN1 and CLUS were transiently transfected into + / + and ATE1^−/− MEFs for 24 h and stimulated with 5 µM MG132 plus 100 nM TG for another 9 h. Cell lysates were subjected to R-catcher pulldown, and bound proteins were detected by western blot analysis. c R-catcher pull-down assays to evaluate if the arginylation of FBNL1, SERPINH1, CLUS and PRDX4 is induced in response to MG132 plus thapsigargin. d X-peptide pulldown assays to confirm no interaction of R-catcher with Nt-Ala19 of SERPINH1 peptides and Nt-Trp38 of PRDX4 peptides. X-peptides where X is A19 (SignalP predicted P1’ site), E20 (next possible P1’ site predicted by PrediSi) or R19 (Arginylated form of Glu) for SERPINH1 and W38 (SignalP predicted P1’ site), E39 (next possible P1’ site predicted by PrediSi) or R38 (Arginylated form) for PRDX4. Biotinylated X-peptides immobilized on streptavidin agarose beads were incubated with affinity-purified GST-ZZ ([…]). Bound GST-ZZ (N132D) was detected by immunoblotting. e Identification of arginylated sites employing mutational analysis. Predicted P1’ sites of SERPINH1, PRDX4, CLUS and FBLN1 were substituted to Gly, and the inhibitory effect of the mutation on binding with R-catcher was examined by performing R-catcher pulldown assays",
  "data": [
    {"molecule": "LG3BP: lectin galactoside-binding soluble 3-binding protein (protein, left off: myc, end not stated, kept | His, end not stated, state not stated) VNDGDMRLADGGATNQGRVEIFYRGQWGTVCDNLWDLTDASVVCRALGFENATQALGRAAFGQGSGPIMLDEVQCTGTEASLADCKSLGWLKSNCRHERDAGVVCTNETRSTHTLDLSRELSEALGQIFDSQRGCDLSISVNVQGEDALGFCGHTVILTANLEAQALWKEPGSNVTMSVDAECVPMVRDLLRYFYSRRIDITLSSVKCFHKLASAYGARQLQGYCASLFAILLPQDPSFQMPLDLYAYAVATGDALLEKLCLQFLAWNFEALTQAEAWPSVPTDLLQLLLPRSDLAVPSELALLKAVDTWSWGERASHEEVEGLVEKIRFPMMLPEELFELQFNLSLYWSHEALFQKKTLQALEFHTVPFQLLARYKGLNLTEDTYKPRIYTSPTWSAFVTDSSWSARKSQLVYQSRRGPLVKYSSDYFQAPSDYRYYPYQSFQTPQHPSFLFQDKRVSWSLVYLPTIQSCWNYGFSCSSDELPVLGLTKSGGSDRTIAYENKALMLCEGLFVADVTDFEGWKAAIPSALDTNSSKSTSSFPCPAGHFNGFRTVIRPFYLTNSSGVD", "values": [
      {"measurement": "binding with R-catcher, Nt-Arg dependence", "result": "no significant binding affinity for R-catcher"}
    ]}
  ]
}
